Laboratory results taken from PMC11880193 (Nature Communications, 2025).
Positions count from the first letter of the chain named. In names and notes the source's numbering stands.

B1: CODANIN-1 F581E/E652A (LOBE2 dimer interface mutant) (natural protein)
chain: MAAVLESLLREEVSVAAVVRWIARSTQGSEDNAGEAAALSSLRALRKEFVPFLLNFLREQSSRVLPQGPPTPAKTPGASAALPGRPGGPPRGSRGARSQLFPPTEAQSTAAEAPLARRGGRRRGPGPARERGGRGLEEGVSGESLPGAGGRRLRGSGSPSRPSLTLSDPPNLSNLEEFPPVGSVPPGPTGTKPSRRINPTPVSEERSLSKPKTCFTSPPISCVPSSQPSALDTSPWGLGLPPGCRSLQEEREMLRKERSKQLQQSPTPTCPTPELGSPLPSRTGSLTDEPADPARVSSRQRLELVALVYSSCIAENLVPNLFLELFFVFQLLTARRMVTAKDSDPELSPAVLDSLESPLFQSIHDCVFFAVQVLECHFQVLSNLDKGTLKLLAENERLLCFSPALQGRLRAAYEGSVAKVSLVMPPSTQAVSFQPETDNRANFSSDRAFHTFKKQRDVFYEVLREWEDHHEEPGWDFEKGLGSRIRAMMGQLSAACSHSHFVRLFQKQLLQMCQSPGGAGGTVLGEAPDVLSMLGADKLGRLWRLQERLMAPQSSGGPCPPPTFPGCQGFFRDFILSASSEQFNQHLMDSLSLKIQELNGLALPQHEPNDEDGESDVDWQGERKQFAVVLLSLRLLAKFLGFVAFLPYRGPAPPPTGELQDSILALRSQVPPVLDVRTLLQRGLQARRAVLTVPWLVEFLSFADHVVPLLEYYRDIFTLLLRLHRSLVLSQESEGKMCFLNKLLLLAVLGWLFQIPTVPEDLFFLEEGPSYAFEVDTVAPEHGLDNAPVVDQQLLYTCCPYIGELRKLLASWVSGSSGRSGGFMRKITPTTTTSLGAQPSQTSQGLQAQLAQAFFHNQPPSLRRTVEFVAERIGSNCVKHIKATLVADLVRQAESLLQEQLVTQGEEGGDPAQLLEILCSQLCPHGAQALALGREFCQRKSPGAVRALLPEETPAAVLSSAENIAVGLATEKACAWLSANITALIRREVKAAVSRTLRAQGPEPAARGERRGCSRACEHHAPLPSHLISEIKDVLSLAVGPRDPDEGVSPEHLEQLLGQLGQTLRCRQFLCPPAEQHLAKCSVELASLLVADQIPILGPPAQYRLERGQARRLLHMLLSLWKEDFQGPVPLQLLLSPRNVGLLADTRPREWDLLLFLLRELVEKGLMGRMEIEACLGSLHQAQWPGDFAEELATLSNLFLAEPHLPEPQLRACELVQPNRGTVLAQS
B2: CODANIN-1 F868I/E871R (C-terminal coiled-coil mutant) (natural protein)
chain: B1 chain with E581F, A652E, F868I, E871R
B3: CODANIN-1 P672L (CDA-I disease mutation) (natural protein)
chain: B1 chain with E581F, A652E, P672L

Biological target: the molecule itself
Assay: SEC

Row | Protein | stoichiometry N | binding result
1 | B1 | 2 | –
2 | B2 | – | binds
3 | B3 | 2 | –
